Test results as given in patent US20230203202A1 (DRAGONFLY THERAPEUTICS, published 2023).

T1: human 5T4 on the cell surface (human, UniProt Q13641 32-420)
T1 construct: whole, on cells; also called h5T4; TPBG
T1 sequence (looked up): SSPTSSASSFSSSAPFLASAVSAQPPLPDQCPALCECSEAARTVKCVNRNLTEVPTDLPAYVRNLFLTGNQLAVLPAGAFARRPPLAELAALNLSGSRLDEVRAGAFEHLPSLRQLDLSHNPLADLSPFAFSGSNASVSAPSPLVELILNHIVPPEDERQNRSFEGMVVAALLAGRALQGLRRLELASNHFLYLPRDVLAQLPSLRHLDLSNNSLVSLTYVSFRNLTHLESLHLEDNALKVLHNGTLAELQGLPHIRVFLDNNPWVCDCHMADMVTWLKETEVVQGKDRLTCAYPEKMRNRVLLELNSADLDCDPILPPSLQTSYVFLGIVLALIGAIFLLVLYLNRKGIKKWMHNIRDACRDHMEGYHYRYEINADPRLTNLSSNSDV


How the values were obtained:
[1] = molecular target: T1, human 5T4 on the cell surface; test: flow cytometry on 5T4+ H1975 cells
[2] = molecular target: T1, human 5T4 on the cell surface; test: cell-based or functional assay

EC50 [1] [nM] | Max (FOB) [1] [fold over background] | lysis of H1975 cells by KHYG-CD16V cells, EC50 [2] [nM] | Binder
3.4 | 17.9 | 0.059 | 10F10 multispecific binding protein (F0) (bispecific antibody, V domains shown) VH: EVQLQESGGGLVKPGGSRRLSCAASRFTFSDFGMHWVRQAPEKGLEWIAYISSGSSTIYYADTVKGRFTISRDNAKNTLFLQMTSLRSEDTAMYYCASSQSYYRGTLDYWGQGTSVTVSS VL: DIVLTQSPASLAVTLGQRATISCRASQSVTTSNYNYMHWFHQKPGQPPKLLIKFASNLESGVPARFSGSGSGTDFTLNIHPVEEEDIATYYCQHSWEIPWTFGGGTKLEIK
> 12 | – | 0.51 | 8E06 multispecific binding protein (F0) (bispecific antibody, V domains shown, also called 08E06) VH: EVQLQESGAEMVRPGASVKLSCKASGYTFTSYWMHWVKQRPGQGLEWIGKIDSSDSKTQYNQKFKDKATLTVDKSSITVYMELNSLTSEDSAVYYCARGGYLWFAYWGQGTLVTVSA VL: DIVMTQSPASLAVSLGQRATISCRASQSVSTSTYSYMHWYQQKPGQSPKLLITYASNLESGVPARFSGSGSGTDFTLNIHPVEEEDIATYYCQHSWEIPWTFGGGTKLEIK
